The target in experiment [1] is ATP synthase subunit d, mitochondrial isoform a (UniProt O75947). As to the kind of experiment: IP-MS with Flag tagged ATPIF1 as bait, no antimycin.
Experiment [2] concerns the target ornithine aminotransferase (UniProt P04181). The experiment is described as above.
Experiment [3] concerns the target mitochondrial-processing peptidase subunit beta (UniProt O75439). The description is as above.
Experiment [4] concerns the target ATPase inhibitor, mitochondria; isoform 1 (UniProt Q9UII2). Described as above.
The target of experiment [5] is 60 kDa heat shock protein, mitochondrial (UniProt P10809). The experiment is described as above.
Experiment [6] concerns the target ATP synthase subunit b, mitochondrial precursor (UniProt P24539). Described as above.
The target in experiment [7] is ATP synthase subunit alpha (UniProt P25705). The experiment is described as above.
In experiment [8] the target is ATP synthase subunit beta (UniProt P06576). The description is as above.
The target of experiment [9] is UDP-glucose: glycoprotein glucosyltransferase 1 (UniProt Q9NYU2). The description is as above.
Experiment [10] deals with mitochondrial-processing peptidase subunit alpha (UniProt Q10713). The description is as above.
In experiment [11] the target is ATP synthase subunit gamma, isoform L (UniProt P36542). The description is as above.
Experiment [12] concerns the target ATP synthase subunit g, mitochondrial (UniProt O75964). The description is as above.
Experiment [13] concerns the target ATP synthase subunit O, mitochondrial precursor (UniProt P48047). Described as above.
Experiment [14] deals with protein zyg-11 homolog B (UniProt Q9C0D3). Described as above.
Experiment [15] addresses ATP synthase subunit d, mitochondrial isoform a (UniProt O75947). As to the kind of experiment: IP-MS, FLAG-OMP25TM bait (control).
The target in experiment [16] is ornithine aminotransferase (UniProt P04181). The experiment can be described thus: IP-MS, FLAG-OMP25TM bait (control).
In experiment [17] the target is mitochondrial-processing peptidase subunit beta (UniProt O75439). The experiment can be described thus: IP-MS, FLAG-OMP25TM bait (control).
Experiment [18] addresses ATPase inhibitor, mitochondria; isoform 1 (UniProt Q9UII2). As to the kind of experiment: IP-MS, FLAG-OMP25TM bait (control).
For experiment [19], the target named is 60 kDa heat shock protein, mitochondrial (UniProt P10809). The experiment can be described thus: IP-MS, FLAG-OMP25TM bait (control).
Experiment [20] deals with ATP synthase subunit b, mitochondrial precursor (UniProt P24539). As to the kind of experiment: IP-MS, FLAG-OMP25TM bait (control).
Experiment [21] addresses ATP synthase subunit alpha (UniProt P25705). The experiment can be described thus: IP-MS, FLAG-OMP25TM bait (control).
The target in experiment [22] is ATP synthase subunit beta (UniProt P06576). As to the kind of experiment: IP-MS, FLAG-OMP25TM bait (control).
The target of experiment [23] is UDP-glucose: glycoprotein glucosyltransferase 1 (UniProt Q9NYU2). As to the kind of experiment: IP-MS, FLAG-OMP25TM bait (control).
For experiment [24], the target named is mitochondrial-processing peptidase subunit alpha (UniProt Q10713). As to the kind of experiment: IP-MS, FLAG-OMP25TM bait (control).
For experiment [25], the target named is ATP synthase subunit gamma, isoform L (UniProt P36542). The experiment can be described thus: IP-MS, FLAG-OMP25TM bait (control).
Experiment [26] concerns the target ATP synthase subunit g, mitochondrial (UniProt O75964). As to the kind of experiment: IP-MS, FLAG-OMP25TM bait (control).
Experiment [27] addresses ATP synthase subunit O, mitochondrial precursor (UniProt P48047). The experiment can be described thus: IP-MS, FLAG-OMP25TM bait (control).
The target in experiment [28] is protein zyg-11 homolog B (UniProt Q9C0D3). The experiment can be described thus: IP-MS, FLAG-OMP25TM bait (control).

Chain of ATP synthase subunit alpha (P25705 44-553): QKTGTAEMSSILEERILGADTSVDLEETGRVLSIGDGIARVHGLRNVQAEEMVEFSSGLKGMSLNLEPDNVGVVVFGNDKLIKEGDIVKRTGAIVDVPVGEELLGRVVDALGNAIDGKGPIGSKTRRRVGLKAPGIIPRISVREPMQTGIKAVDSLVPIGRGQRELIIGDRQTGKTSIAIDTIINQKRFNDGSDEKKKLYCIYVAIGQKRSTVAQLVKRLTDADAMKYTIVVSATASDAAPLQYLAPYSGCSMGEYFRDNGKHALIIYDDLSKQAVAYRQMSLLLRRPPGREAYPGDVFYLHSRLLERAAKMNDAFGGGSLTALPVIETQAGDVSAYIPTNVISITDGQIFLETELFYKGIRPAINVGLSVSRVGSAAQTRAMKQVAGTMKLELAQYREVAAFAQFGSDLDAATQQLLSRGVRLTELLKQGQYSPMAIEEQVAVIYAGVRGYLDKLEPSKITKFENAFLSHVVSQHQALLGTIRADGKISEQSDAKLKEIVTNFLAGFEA
Chain of ATP synthase subunit O, mitochondrial precursor (P48047 24-213 limits assumed): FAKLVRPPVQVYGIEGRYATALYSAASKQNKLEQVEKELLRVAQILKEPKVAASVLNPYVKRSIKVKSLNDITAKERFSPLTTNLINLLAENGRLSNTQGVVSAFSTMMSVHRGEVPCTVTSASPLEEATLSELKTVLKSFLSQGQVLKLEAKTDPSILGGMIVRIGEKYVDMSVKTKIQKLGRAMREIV
Chain of ATP synthase subunit g, mitochondrial (O75964 2-103): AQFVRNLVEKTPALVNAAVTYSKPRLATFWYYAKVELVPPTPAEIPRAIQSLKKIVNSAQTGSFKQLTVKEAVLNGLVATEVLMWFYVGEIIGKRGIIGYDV
Chain of 60 kDa heat shock protein, mitochondrial (P10809 27-573 limits assumed): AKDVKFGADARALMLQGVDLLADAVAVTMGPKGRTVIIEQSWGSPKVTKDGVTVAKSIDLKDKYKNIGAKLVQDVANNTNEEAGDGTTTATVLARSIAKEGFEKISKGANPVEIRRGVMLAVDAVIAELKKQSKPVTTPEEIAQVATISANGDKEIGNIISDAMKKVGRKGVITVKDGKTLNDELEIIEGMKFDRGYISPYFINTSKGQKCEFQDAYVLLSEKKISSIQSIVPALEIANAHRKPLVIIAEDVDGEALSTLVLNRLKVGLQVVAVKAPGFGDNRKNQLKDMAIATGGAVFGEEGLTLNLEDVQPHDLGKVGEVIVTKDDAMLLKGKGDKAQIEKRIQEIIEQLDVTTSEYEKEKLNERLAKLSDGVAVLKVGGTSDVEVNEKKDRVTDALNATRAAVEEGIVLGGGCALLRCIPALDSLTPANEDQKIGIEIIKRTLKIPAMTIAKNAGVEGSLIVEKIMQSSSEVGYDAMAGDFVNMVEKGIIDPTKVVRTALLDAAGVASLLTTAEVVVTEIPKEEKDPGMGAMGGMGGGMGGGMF
Chain of ATPase inhibitor, mitochondria; isoform 1 (Q9UII2 26-106): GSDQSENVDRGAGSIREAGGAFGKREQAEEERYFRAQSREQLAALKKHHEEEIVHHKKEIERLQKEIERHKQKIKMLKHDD
Chain of mitochondrial-processing peptidase subunit beta (O75439 44-489 limits assumed): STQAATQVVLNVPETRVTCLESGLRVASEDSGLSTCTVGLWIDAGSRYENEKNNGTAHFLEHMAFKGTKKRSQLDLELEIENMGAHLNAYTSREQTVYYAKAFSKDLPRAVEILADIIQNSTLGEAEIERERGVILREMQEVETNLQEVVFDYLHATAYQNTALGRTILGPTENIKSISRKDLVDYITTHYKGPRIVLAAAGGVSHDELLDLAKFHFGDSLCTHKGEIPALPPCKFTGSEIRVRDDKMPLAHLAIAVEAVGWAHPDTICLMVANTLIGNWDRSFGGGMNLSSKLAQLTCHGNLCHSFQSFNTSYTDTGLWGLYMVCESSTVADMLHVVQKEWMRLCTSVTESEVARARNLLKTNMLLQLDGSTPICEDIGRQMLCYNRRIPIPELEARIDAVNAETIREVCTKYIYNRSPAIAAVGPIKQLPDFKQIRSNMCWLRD
Chain of ATP synthase subunit d, mitochondrial isoform a (O75947 2-161): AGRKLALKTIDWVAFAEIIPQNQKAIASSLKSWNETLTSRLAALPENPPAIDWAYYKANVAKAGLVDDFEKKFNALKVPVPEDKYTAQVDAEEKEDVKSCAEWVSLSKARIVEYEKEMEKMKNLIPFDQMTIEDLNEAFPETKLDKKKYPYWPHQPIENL
Chain of ornithine aminotransferase (P04181 26-439 limits assumed): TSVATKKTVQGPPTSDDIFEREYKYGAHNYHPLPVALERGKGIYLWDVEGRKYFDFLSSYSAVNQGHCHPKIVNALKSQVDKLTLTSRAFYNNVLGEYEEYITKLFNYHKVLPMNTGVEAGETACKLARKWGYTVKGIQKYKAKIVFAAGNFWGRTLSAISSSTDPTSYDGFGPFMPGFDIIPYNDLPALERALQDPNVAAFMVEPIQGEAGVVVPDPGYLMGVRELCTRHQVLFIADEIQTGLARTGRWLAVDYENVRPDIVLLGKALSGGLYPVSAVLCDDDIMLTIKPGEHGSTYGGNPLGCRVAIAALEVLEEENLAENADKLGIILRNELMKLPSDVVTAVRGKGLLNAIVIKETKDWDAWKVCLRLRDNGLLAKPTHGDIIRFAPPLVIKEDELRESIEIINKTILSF
Chain of protein zyg-11 homolog B (Q9C0D3 whole entry, canonical isoform): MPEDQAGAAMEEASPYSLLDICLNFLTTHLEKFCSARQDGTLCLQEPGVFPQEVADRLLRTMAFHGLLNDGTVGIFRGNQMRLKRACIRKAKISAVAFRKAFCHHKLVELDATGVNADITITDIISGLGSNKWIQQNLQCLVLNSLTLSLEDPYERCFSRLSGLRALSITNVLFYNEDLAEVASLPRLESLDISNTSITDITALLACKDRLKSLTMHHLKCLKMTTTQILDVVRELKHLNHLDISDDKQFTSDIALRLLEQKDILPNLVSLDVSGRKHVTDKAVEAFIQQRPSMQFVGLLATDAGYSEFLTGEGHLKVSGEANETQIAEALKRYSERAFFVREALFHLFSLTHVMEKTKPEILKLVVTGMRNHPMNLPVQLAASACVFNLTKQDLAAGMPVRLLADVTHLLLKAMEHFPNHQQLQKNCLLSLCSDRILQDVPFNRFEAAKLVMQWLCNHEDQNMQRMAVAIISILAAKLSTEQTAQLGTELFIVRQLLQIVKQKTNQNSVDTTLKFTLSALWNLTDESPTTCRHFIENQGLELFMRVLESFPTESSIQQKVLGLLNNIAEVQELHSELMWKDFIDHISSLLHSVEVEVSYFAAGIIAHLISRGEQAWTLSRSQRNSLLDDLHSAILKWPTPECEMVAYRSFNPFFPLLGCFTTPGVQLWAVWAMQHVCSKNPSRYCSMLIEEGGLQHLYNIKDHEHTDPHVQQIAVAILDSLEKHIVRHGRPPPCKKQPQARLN
Chain of ATP synthase subunit b, mitochondrial precursor (P24539 43-256 limits assumed): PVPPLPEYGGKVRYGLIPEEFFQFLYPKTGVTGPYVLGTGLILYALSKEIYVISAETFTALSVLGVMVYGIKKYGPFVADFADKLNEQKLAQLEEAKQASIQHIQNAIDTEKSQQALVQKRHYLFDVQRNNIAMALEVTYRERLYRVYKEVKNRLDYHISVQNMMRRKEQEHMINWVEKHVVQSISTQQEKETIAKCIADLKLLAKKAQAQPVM
Chain of mitochondrial-processing peptidase subunit alpha (Q10713 34-525 limits assumed): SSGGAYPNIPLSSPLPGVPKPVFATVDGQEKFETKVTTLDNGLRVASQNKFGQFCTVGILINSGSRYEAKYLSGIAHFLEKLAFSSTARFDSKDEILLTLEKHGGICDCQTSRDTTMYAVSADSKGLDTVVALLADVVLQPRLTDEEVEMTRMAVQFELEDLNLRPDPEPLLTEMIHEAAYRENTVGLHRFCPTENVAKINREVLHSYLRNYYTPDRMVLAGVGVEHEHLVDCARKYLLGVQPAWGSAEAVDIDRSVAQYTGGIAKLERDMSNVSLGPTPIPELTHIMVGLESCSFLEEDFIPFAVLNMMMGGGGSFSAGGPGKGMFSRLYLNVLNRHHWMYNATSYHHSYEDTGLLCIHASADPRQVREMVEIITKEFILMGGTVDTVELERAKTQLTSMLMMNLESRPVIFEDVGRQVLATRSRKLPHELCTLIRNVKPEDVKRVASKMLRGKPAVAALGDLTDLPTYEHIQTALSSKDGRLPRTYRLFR
Chain of ATP synthase subunit beta (P06576 48-529): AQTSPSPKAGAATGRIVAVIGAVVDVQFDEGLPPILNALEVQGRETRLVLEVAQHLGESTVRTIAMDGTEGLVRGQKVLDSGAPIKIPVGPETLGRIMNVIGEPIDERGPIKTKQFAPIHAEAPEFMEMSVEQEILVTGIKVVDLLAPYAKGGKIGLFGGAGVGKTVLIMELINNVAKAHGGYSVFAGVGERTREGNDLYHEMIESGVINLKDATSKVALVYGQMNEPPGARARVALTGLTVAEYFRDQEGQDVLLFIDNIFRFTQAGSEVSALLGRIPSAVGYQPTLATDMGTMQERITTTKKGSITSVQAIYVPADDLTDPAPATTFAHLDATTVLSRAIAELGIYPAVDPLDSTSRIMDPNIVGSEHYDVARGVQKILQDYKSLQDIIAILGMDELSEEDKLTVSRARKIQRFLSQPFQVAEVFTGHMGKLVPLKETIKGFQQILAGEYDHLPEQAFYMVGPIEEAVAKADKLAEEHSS
Chain of ATP synthase subunit gamma, isoform L (P36542 26-298): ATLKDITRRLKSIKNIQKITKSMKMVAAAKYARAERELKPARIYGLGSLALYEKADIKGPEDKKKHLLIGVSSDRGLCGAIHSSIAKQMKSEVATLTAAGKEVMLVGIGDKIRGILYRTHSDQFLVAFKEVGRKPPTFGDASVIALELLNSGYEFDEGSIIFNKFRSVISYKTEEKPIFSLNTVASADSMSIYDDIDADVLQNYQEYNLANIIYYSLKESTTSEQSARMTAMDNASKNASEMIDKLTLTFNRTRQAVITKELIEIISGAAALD

On to “Flag tagged ATPIF1 (from UniProt Q9UII2 26-106)”, for which the IP-MS count (kind of count not given) worked out at 26 in experiment [1]; 16 in experiment [2]; 17 in [3]; 175 in [4]; 28 in experiment [5]; 44 in experiment [6]. Further, the IP-MS count (kind of count not given) in experiment [7] is 381; in experiment [8] it was 375; in [9] it was 15; in experiment [10] it was 14; in [11] it was 59; in experiment [12], 14. The IP-MS count (kind of count not given) in experiment [13] was determined as 47; with protein zyg-11 homolog B [14], 19.

With FLAG-OMP25TM, the IP-MS count (kind of count not given) came out at 1 in [15]; 1 in [16]; 0 in experiment [17]; 3 in [18]; 4 in [19]; 3 in [20]. Also, the IP-MS count (kind of count not given) stood at 11 in [21]; 7 in [22]; 5 in experiment [23]; 0 in experiment [24]; 2 in experiment [25]; 0 in experiment [26]. Also, the IP-MS count (kind of count not given) in [27] came out at 3; with protein zyg-11 homolog B [28], 0.

Source of the values: patent publication US20150065556A1, “THERAPEUTIC TARGETS FOR MITOCHONDRIAL DISORDERS” (Whitehead Institute for Biomedical Research, priority 2013, published 2015).
